target: HLA-A*02:01 (Homo sapiens, UniProt P04439, D140Y/D185E/D98H/E176V/E277Q/G131W/G231S/I119V/I121R/I166T/I218V/L300P/L318F/N151K/N90K/P208A/P217A/Q86G/Q94H/R138H/R169H/T345S); assay: MHC binding assay: UV-ligand exchange with beta2m ELISA (exchange yield); conditions: binding to HLA-A*02:01, β2m ELISA
Method in brief: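 Exchange yield reflects how much β2m remains bound, measured by ELISA: streptavidin capture of 100-fold diluted monomers, HRP anti-β2m at 37° C. for 1 h, TMB read at 450 nm. Monomers come from UV cleavage of a conditional HLA-A*02:01 ligand in the presence of the candidate peptide.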

| Substance | Peptide exchange (MHC class I binding score, peptide exchange yield) |
| --- | --- |
| 334 (TLTKVLVAL; listed as Homo sapiens) [compound 334] | “+++” (≥50 = +++) |
| 335 (YSLSSVVTV; listed as Homo sapiens) [compound 335] | “+++” (≥50 = +++) |
| 336 (ILLTAIVQV; listed as Homo sapiens) [compound 336] | “+++” (≥50 = +++) |
| 337 (HLLSELEAAPYL; listed as Homo sapiens) [compound 337] | “++++” (≥75% = ++++) |
| 339 (GLWEIENNPTVKA; listed as Homo sapiens) [compound 339] | “++++” (≥75% = ++++) |
| 340 (ALLSMTFPL; listed as Homo sapiens) [compound 340] | “++++” (≥75% = ++++) |
| 341 (SQIALNEKLVNL; listed as Homo sapiens) [compound 341] | “+++” (≥50 = +++) |
| 342 (HIYDKVMTV; listed as Homo sapiens) [compound 342] | “+++” (≥50 = +++) |
| 343 (SLLEVNEESTV; listed as Homo sapiens) [compound 343] | “+++” (≥50 = +++) |
| 344 (YLQDQHLLLTV; listed as Homo sapiens) [compound 344] | “+++” (≥50 = +++) |
| 345 (VIWKALIHL; listed as Homo sapiens) [compound 345] | “+++” (≥50 = +++) |
| 346 (LLDSKVPSV; listed as Homo sapiens) [compound 346] | “+++” (≥50 = +++) |
| 347 (SLFKHDPAAWEA; listed as Homo sapiens) [compound 347] | “++++” (≥75% = ++++) |
| 348 (ILLDVKTRL; listed as Homo sapiens) [compound 348] | “++++” (≥75% = ++++) |
| 349 (SLTEYLQNV; listed as Homo sapiens) [compound 349] | “++++” (≥75% = ++++) |
| 350 (ALLDVTHSELTV; listed as Homo sapiens) [compound 350] | “+++” (≥50 = +++) |
| 351 (SLIPNLRNV; listed as Homo sapiens) [compound 351] | “+++” (≥50 = +++) |
| 352 (SLLELLHIYV; listed as Homo sapiens) [compound 352] | “+++” (≥50 = +++) |

| Substance | Peptide exchange (MHC class I binding score, peptide exchange yield) |
| --- | --- |
| 353 (YLFEMDSSL; listed as Homo sapiens) [compound 353] | “++” (≥20% = ++) |
| 354 (LILEGVDTV; listed as Homo sapiens) [compound 354] | “++” (≥20% = ++) |
| 355 (SIQQSIERLLV; listed as Homo sapiens) [compound 355] | “++” (≥20% = ++) |
| 356 (KLLGKLPEL; listed as Homo sapiens) [compound 356] | “+++” (≥50 = +++) |
| 357 (SMHDLVLQV; listed as Homo sapiens) [compound 357] | “+++” (≥50 = +++) |
| 358 (ALDEYTSEL; listed as Homo sapiens) [compound 358] | “++++” (≥75% = ++++) |
| 359 (YLLPESVDL; listed as Homo sapiens) [compound 359] | “+++” (≥50 = +++) |
| 361 (ALYELEGTTV; listed as Homo sapiens) [compound 361] | “+++” (≥50 = +++) |
| 362 (TLYGLSVLL; listed as Homo sapiens) [compound 362] | “+++” (≥50 = +++) |
| 363 (KVLDVSDLESV; listed as Homo sapiens) [compound 363] | “++” (≥20% = ++) |
| 364 (LLQNEQFEL; listed as Homo sapiens) [compound 364] | “+++” (≥50 = +++) |
| 365 (YVIDQGETDVYV; listed as Homo sapiens) [compound 365] | “+++” (≥50 = +++) |
| 366 (RLLDMGETDLML; listed as Homo sapiens) [compound 366] | “+++” (≥50 = +++) |
| 367 (SLQNHNHQL; listed as Homo sapiens) [compound 367] | “+++” (≥50 = +++) |
| 369 (GLFPEHLIDV; listed as Homo sapiens) [compound 369] | “+++” (≥50 = +++) |
| 370 (SLLQDLVSV; listed as Homo sapiens) [compound 370] | “+++” (≥50 = +++) |
| 371 (FLQAHLHTA; listed as Homo sapiens) [compound 371] | “++++” (≥75% = ++++) |

Other lines, results leading:

| Peptide exchange (MHC class I binding score, peptide exchange yield) | Substance |
| --- | --- |
| “++” (≥20% = ++) | 372 (TMLLNIPLV; listed as Homo sapiens) [compound 372] |
| “++” (≥20% = ++) | 373 (SLLEDKGLAEV; listed as Homo sapiens) [compound 373] |
| “++” (≥20% = ++) | 374 (FLLQQHLISA; listed as Homo sapiens) [compound 374] |
| “++” (≥20% = ++) | 375 (SLTETIEGV; listed as Homo sapiens) [compound 375] |
| “++” (≥20% = ++) | 376 (AMFESSQNVLL; listed as Homo sapiens) [compound 376] |
| “++” (≥20% = ++) | 377 (FLLDSSASV; listed as Homo sapiens) [compound 377] |
| “+++” (≥50 = +++) | 378 (ALGYFVPYV; listed as Homo sapiens) [compound 378] |
| “++” (≥20% = ++) | 379 (IMEGTLTRV; listed as Homo sapiens) [compound 379] |
| “++” (≥20% = ++) | 380 (TLIEDEIATI; listed as Homo sapiens) [compound 380] |
| “++” (≥20% = ++) | 381 (FIDEAYVEV; listed as Homo sapiens) [compound 381] |
| “++” (≥20% = ++) | 382 (ALQNYIKEA; listed as Homo sapiens) [compound 382] |
| “+++” (≥50 = +++) | 383 (ALLELENSVTL; listed as Homo sapiens) [compound 383] |
| “++” (≥20% = ++) | 385 (SLLEQGLVEA; listed as Homo sapiens) [compound 385] |
| “+++” (≥50 = +++) | 386 (ILFRYPLTI; listed as Homo sapiens) [compound 386] |
| “++++” (≥75% = ++++) | 387 (ALFQATAEV; listed as Homo sapiens) [compound 387] |
| “+++” (≥50 = +++) | 388 (SLTIDGIRYV; listed as Homo sapiens) [compound 388] |

| Peptide exchange (MHC class I binding score, peptide exchange yield) | Substance |
| --- | --- |
| “++” (≥20% = ++) | 389 (LLADVTHLL; listed as Homo sapiens) [compound 389] |
| “+++” (≥50 = +++) | 390 (ALFMKQIYL; listed as Homo sapiens) [compound 390] |
| “+++” (≥50 = +++) | 391 (YVYPQRLNFV; listed as Homo sapiens) [compound 391] |
| “++” (≥20% = ++) | 392 (ALLHPQGFEV; listed as Homo sapiens) [compound 392] |
| “++” (≥20% = ++) | 393 (GLLDTQTSQVLTA; listed as Homo sapiens) [compound 393] |
| “+++” (≥50 = +++) | 394 (LLAVIGGLVYL; listed as Homo sapiens) [compound 394] |
| “++++” (≥75% = ++++) | 395 (ALALGGIAVV; listed as Homo sapiens) [compound 395] |
| “+++” (≥50 = +++) | 396 (ALLPDLPAL; listed as Homo sapiens) [compound 396] |
| “+++” (≥50 = +++) | 397 (YLFGERLLEC; listed as Homo sapiens) [compound 397] |
| “++” (≥20% = ++) | 398 (KLLEEDGTIITL; listed as Homo sapiens) [compound 398] |
| “+++” (≥50 = +++) | 399 (YLFEPLYHV; listed as Homo sapiens) [compound 399] |
| “++” (≥20% = ++) | 400 (SLLTEQDLWTV; listed as Homo sapiens) [compound 400] |
| “+++” (≥50 = +++) | 401 (ILLDDTGLAYI; listed as Homo sapiens) [compound 401] |
| “++” (≥20% = ++) | 402 (VLFSGALLGL; listed as Homo sapiens) [compound 402] |
| “++” (≥20% = ++) | 403 (KLYDRILRV; listed as Homo sapiens) [compound 403] |
